The record followed here is US11433139B2, “Peptide vaccines against interleukin-31” (Zoetis Services LLC, priority 2018, dated 2022).

Assay [1] concerns the target T1, canine IL-31 (Canis lupus familiaris, UniProt A0A8I3S3D1).
T1 construct: made in house; host or cells: CHO cells (CHROMOS ACE system)
T1 sequence (A0A8I3S3D1 24-159): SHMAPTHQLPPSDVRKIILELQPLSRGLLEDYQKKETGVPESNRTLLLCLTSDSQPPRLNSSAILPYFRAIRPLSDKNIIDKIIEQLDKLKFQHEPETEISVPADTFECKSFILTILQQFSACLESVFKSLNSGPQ
Nature of the assay: Inhibition of canine IL-31 induced pSTAT3 signaling in canine DH-82 and feline FCWF4 cells. It counts as cell-based. In a few lines: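 DH-82 cells primed with canine IFN-γ 10 ng/mL for 24 h, FCWF4 with feline IFN-γ 125 ng/mL for 96 h, then serum-starved 2 h. mAb pre-incubated 1 h with 1 μg/mL canine or 0.2 μg/mL feline IL-31, cells stimulated 5 min; pSTAT3 by AlphaLISA SureFire, IC50 as half-maximal signalling reduction.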

Assay [2] has as its target canine IL-31. Nature of the assay: Affinity of anti-IL-31 antibodies by surface plasmon resonance (Biacore), canine IL-31 surface. The settings on record: IL-31 conjugated to the surface (FIG. 2). In kind it is binding. The method, boiled down:
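IL-31 amine-coupled (NHS/EDC) at 5 μg/mL directly onto the SPR chip, quenched with ethanolamine; candidate mAbs flowed over as analyte. KD from 1:1 model fits; values below 1×10^−11 M are under the instrument's lower quantitation limit.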

In assay [3] the test system is wildtype feline IL-31. Nature of the assay: Indirect ELISA, binding to wildtype feline IL-31. In a few lines:
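Wildtype or 15H05-epitope-mutant feline IL-31 coated directly onto plates as capture antigen (50 ng/well). Antibodies diluted in PBST, bound antibody detected with HRP-labelled secondary and TMB for 10 min at RT. Reaction stopped with 0.1 N HCl, then OD read at 450 nm.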

Assay [4] deals with equine IL-31. Nature of the assay: Biacore binding, single test concentration of antibody, equine IL-31 surface. The protocol:
(§1) For the indirect ELISA, binding (ELISA OD) to wildtype feline IL-31 and a feline IL-31 15H05 mutant which had mutations in the monoclonal antibody 15H05 epitope region was assessed. To confirm binding, biacore analysis was performed using canine, feline, equine, human, the feline 15H05 mutant, and feline 11E12 mutant IL-31 proteins as surfaces and a single test concentration of antibody. The feline IL-31 11E12 mutant had mutations in the monoclonal antibody 11E12 epitope region.
(§2) For the indirect ELISA method, antibody binding to wildtype and feline IL-31 15H05 mutant proteins was assessed. […] In comparison, the 11E12 antibody bound to the wild-type feline IL-31 and its binding was not impacted by the mutations in the 15H05 epitope region as evidenced by the data in FIG. 4. To confirm binding, biacore analysis was performed using canine, feline, equine, human, feline 15H05 mutant, and feline 11E12 mutant IL-31 proteins as surfaces and a single test concentration of antibody. Similar to ELISA observations, all antibodies tested bound to wildtype feline IL-31. In agreement with the data described above in this section, mouse antibodies 11 E12 and 15H05 both bound to canine and feline IL-31 surfaces. […] From this group of nine fully canine antibodies, only ZIL1 and ZIL9 cross-reacted with equine IL-31. Of note, antibody 15H05 was the only one of all assayed herein that bound to canine, feline, and equine IL-31 indicating some level of epitope conservation across the three species. In contrast, none of the antibodies described herein bound to human IL-31. Additional biacore surfaces were used to verify ELISA observations showing differential binding of antibodies to wildtype feline IL-31 and two proteins with mutations in the 15H05 (15H05 mutant) or 11 E12 (11E12 mutant) epitopes. […] Differing results can be attributed to differences in the two assay methodologies.

The test system of assay [5] is feline 15H05 mutant IL-31. Nature of the assay: Biacore binding, single test concentration of antibody, feline 15H05 mutant IL-31 surface. The protocol: as §1, §2

Chain of canine IL-31 (as listed by the source): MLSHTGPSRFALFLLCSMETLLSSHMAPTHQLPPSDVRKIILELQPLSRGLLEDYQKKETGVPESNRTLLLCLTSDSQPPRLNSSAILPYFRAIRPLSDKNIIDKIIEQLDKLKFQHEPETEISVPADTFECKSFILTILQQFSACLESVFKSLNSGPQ
Chain of wildtype feline IL-31 (as listed by the source): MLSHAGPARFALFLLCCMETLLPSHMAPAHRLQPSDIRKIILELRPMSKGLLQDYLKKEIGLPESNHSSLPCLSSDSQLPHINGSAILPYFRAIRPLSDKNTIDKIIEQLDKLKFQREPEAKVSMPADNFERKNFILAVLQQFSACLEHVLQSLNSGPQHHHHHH
Chain of equine IL-31 (as listed by the source): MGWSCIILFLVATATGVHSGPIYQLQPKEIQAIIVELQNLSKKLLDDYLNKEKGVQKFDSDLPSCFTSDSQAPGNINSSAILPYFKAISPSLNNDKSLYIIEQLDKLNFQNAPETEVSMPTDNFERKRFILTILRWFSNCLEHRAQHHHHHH

B1: 15H05: mouse anti IL-31 monoclonal antibody, VH SEQ ID NO: 67, VL SEQ ID NO: 69 (antibody, listed as Mus musculus, V domains shown)
VH: QVQLQQSAAELARPGASVKMSCKTSGYTFTSYTIHWIKQRPGQGLEWIGNINPTSGYTENNQRFKDKTTLTVDRSSNTAYLQLHSLTSEDSAVYFCARWGFKYDGEWSFDVWGAGTTVTVSS
VL: DIQMNQSPSSLSASLGDTITVTCRASQGISIWLSWYQQKPGNIPKVLINKASNLHIGVPPRFSGSGSGTHFTLTITSLQPEDIATYYCLQSQTYPLTFGGGTKLEIN
Take B1: in assay [1] (canine IL-31, canine cells), the “blocking of canine IL-31 signaling in canine cells” value is “capable of blocking canine IL-31 signaling”. Further, the “blocking of canine IL-31 signaling in feline cells” value in assay [1] (canine IL-31, feline cells) is “capable of blocking canine IL-31 signaling”. In addition, the figures for the “affinity (KD) to canine IL-31” value in assay [2] (listed as Mu-15H05) and in assay [2] (listed as mAb 15H05) were “sub-nanomolar” and “high”, respectively. In addition, the “binding to wildtype feline IL-31 (ELISA)” value in assay [3] was “capable of binding”. The “binding to equine IL-31 (Biacore)” value in assay [4] is given as “bound”. Also, the “binding to feline 15H05 mutant IL-31 (Biacore)” value in assay [5] is recorded as “did not bind”.
